Laboratory results from publication PMC3217939.

Molecular target: Cotton leaf curl Kokhran virus-Dabawali V2, His-tagged (Cotton leaf curl Kokhran virus-Dabawali)
Experiment: SPR; BIAcore 2000, 25 C; His-tagged V2 immobilised on Ni-NTA chip (about 340-350 RU); GST-CP 100-800 nM flowed at 20 ul/min, 90 s association; 10 mM HEPES pH 7.4, 150 mM NaCl, 50 uM EDTA, 0.005% surfactant P-20; global fit, 1:1 Langmuir model

Substance: GST-CP fusion protein (coat protein of Cotton leaf curl Kokhran virus-Dabawali) (natural protein)
- Kd: 2600 nM
- koff: 0.00267 s⁻¹
- kon: 1030 M⁻¹ s⁻¹
